# Data reported in the RNAGym collection of RNA variant scans (doi:10.1073/pnas.2313332121).
# B1: TPR t1 (parent)
# chain: GACCAAUCUGCCCUCAGAGCUCGAGAACAUCUUCGGAUGCAGAGGAGGCAGGCUUCGGUGGCGCGAUAGCGCCAACGUCCUCAACCUCCAAUGCAUCCCACCACAUGAUGAUGCCUGAAGAGCCUUGGUUUUUUG
# Variants of: B1
# Assay: polymerase ribozyme fitness, log enrichment relative to wild type (log ratio); higher = more active; in vitro selection for triplet polymerase activity
# How it was run: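 Mutant libraries of both subunits of a heterodimeric triplet polymerase ribozyme were PCR-built, transcribed, and selected once in triplicate, with frozen incubation at −7 °C and capture of gel-excised extended constructs on streptavidin beads before RT-PCR. Illumina sequencing of input and output libraries was filtered to genotypes with ≥10 input reads and ≥1 read per output. Fitness is the logarithm of genotype enrichment over wild-type enrichment, using inverse-variance-weighted replicate averages. The logarithm is base 2.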
row,Variant,polymerase ribozyme fitness (log ratio)
1,A18U A43C A121C,-0.924
2,G17A C62G,-5.69
3,G17U A24G U32C G61C G117C,-6.76
4,G17C C80U A83U C115G,-2.85
5,A18U A41G U106A C124G,-1.51
6,G17A G39U C49G U78C G117U,-5.4
7,A16G G117C,-3.97
8,G17A U78C U129C,-3.37
9,G17A C124U,-1.79
10,G17A C124G,0.0623
11,A18C A83C A91G A111C,-3.03
12,A16G A43G C124U U125A,-1.48
13,G17U C64U U78C,-3.17
14,A18C U109A,-5.77
15,A16G C22A G47U G48U C64U C123G,-6.67
16,A16G G69U C73U C99U,-2.5
17,G17A U55A G63U A84G,-7.59
18,A18U G69A,-5.06
19,A18U A43U C101G,-3.57
20,G19A C53A U125G,-3.26
21,A18G U32A C76U C124G,-2.81
22,G17U C20A C49U,-5.73
23,A18U C88U,-2.25
24,G17U A18C C53G,-3.98

row,Variant,polymerase ribozyme fitness (log ratio)
1,A18U A29U U54G C89G C114G,-3.41
2,A18U G63U,-4.1
3,A18U G63A,-3.69
4,G17U C20G G52A C73A G113A A119G,-1.98
5,A18U C72G,-2.48
6,A18U C72G C115U G128A,-4.57
7,G17A G77U U78A A118U,-4.97
8,G17U C49A G61A,-2.67
9,A16G C76G G120A,-2.25
10,G17A A66G,-4.85
11,G19A C20U,-1.54
12,A18U G42A,-2.11
13,A18U G47U G52A,-5.39
14,A16C U38G A46U C56A U59A U87G,-4.62
15,A18C A43G C85G U96G,-4.07
16,A18C G110A,-3.98
17,G17U U78A C79G C115U,-6.15
18,A18G G63A C115A C123U,-6.7
19,A18G C56G A103C C115G U129G U130C,-6.47
20,A16U G77A G117U,-3.13
21,A16G G61U A66U U81A U106A U116C,-0.459
22,A16U C28U C76G C82U U116A,-3.83
23,A16G C49G C56G,-4.65
24,A18G A66U G113A U126C U133A,-4.19

row,Variant,polymerase ribozyme fitness (log ratio)
1,A16U C82U,-2.17
2,G17C C49G C62A,-7.71
3,A18U G44U G110A,-5.32
4,A16U C62U U81G A121U,-2.2
5,G17U A29U C72U,-4.39
6,A16G C124U,0.601
7,A18U G44A U54A U59A C86U U106A,-4.83
8,G17U G48U C70U U78C U87G U112A,-4.19
9,A16G G93A G120A G122U U130G,-3.58
10,A18C A91U,-1.86
11,A18G G57U G69A C85U G120U,-7.29
12,A18C U32C G120C,-0.763
13,A16U C20A C56A,-5.28
14,G17C A37U C64U U92A,-5.44
15,A18G C22A G42C U54G G63C U112G,-5.39
16,A18C U87G U132A,-2.91
17,G17A A18C C114G C124A G135U,-5.65
18,A18C C115G A119G,1.41
19,A18G U78A C86A C97A C102U U109A G113C,-6.86
20,G17U A43G G57U,-4.19
21,A18C G39C A41U C123U,-2.25
22,A16G G52A C56A G69U,-1.69
23,A18U A24C A27U C40U G63C C89G U116A A121G,-5.65
24,G17A G48A C102A A119U C123A,-6.09

row,Variant,polymerase ribozyme fitness (log ratio)
1,A18C G45A C53U G113A,-3.09
2,A18U A41C,-2.34
3,A16U A50C C56A A95C,-3.91
4,G17A G61A,-2.34
5,G17A G61U,-2.6
6,G17A G48A U87G G117A,-2.48
7,G17U C72A,-1.86
8,A18U C124A,-0.753
9,G17A U38G C115A U116A U131C,-2.73
10,G17A G36U G120C C123U C124G,-1.43
11,A18U G36U G48U G69U G120U G122U,-1.69
12,A16U C114A,-4.01
13,A18G A43U C101G G120A,-4.32
14,G17A U55A G77U C115U U125A,-0.205
15,A16U C62U C94U,-1.79
16,G17U A46C C62U U112A C115A U132G U134A,0.56
17,G17A G42U U106A,-5.21
18,G17C U54G C94A U112G,-6.12
19,G17U C88U,-2.42
20,G17A A41U A84C,-4.63
21,A18C A43G G47C U54C C114U U126A,-5.87
22,A16U U78C,-2.22
23,A18G G120U,-2.46
24,A18G G120C,-0.633

row,Variant,polymerase ribozyme fitness (log ratio)
1,A16U C70G,-2.98
2,G17A C123U,-2.01
3,G17C C34U G42U C70A C123A,-6.07
4,G17A C88U U133A,-3.95
5,G17A G23U G61U C76U C114A,-5.73
6,G17A G61A C73U A75C,-3.99
7,G19A A41U C62U C94U,-3.23
8,A18U C73U C101U G120A,-2.78
9,A18U C94G A121C U126G,-5.02
10,A18U C20A C97G U109A U116A,-5.44
11,G17A C40A A43U,-5.48
12,A16U G63U,-4.13
13,A18U G48A C49A C85G U133A,-3.22
14,A18C C104U C123G,0.269
15,G19A A43U,-2.7
16,G17U U78A,-2.93
17,A16G G65U C73G C89A C123A,-7.69
18,A18C U32C A46U A90U C114U,-3.04
19,G19A C49G G63C G93C A105C G107C G117C,-6.07
20,A16C U87A C123G G128C,-1.81
21,A18U G117U,-4.36
22,A18G C80U,-3.36
23,G19A C62U C88A A121C,-1.46
24,A18C C49A U78G C114U,-4.02

row,Variant,polymerase ribozyme fitness (log ratio)
1,A18C A27G A43U G44U G61A,-4.83
2,G17U G44U C72G C85U U96A A121G C124G,-3.95
3,A16U C40G C56U U112G,-0.767
4,G17A C49G A83U U87C G117A,-3.65
5,G17A A37U U54C C70U,-4.08
6,A18U G25A C34G C53U G61A A100U,-8.02
7,A18C G63A U78G,-5.52
8,G17U G52U C62A C70U,-4.32
9,A16U A43U U112C,-1.59
10,A16G A74U,-1.36
11,G17A A50U G51U C114G,-6.63
12,A18C C56G U59A A100U A111G G127C,-3.88
13,G17U G135U,-3.6
14,A18C C40U A41G C56G,-3.24
15,G17U A68G C73G U112C,-5.21
16,G17A G69U U81A U116A,-2.91
17,A16U A37C C53A A91G U112A,-1.42
18,A18C A37C U112C,-1.3
19,A18U U81A,-3.77
20,G17U U38A G61U U125A,-3.94
21,A16U G52U G69A C76U U78C A121C,-3.43
22,A18U A43U U59G G113A U125C,-2.05
23,A18U C85U C94G,-5.59
24,A18C A50C G60A A84G U92A,-6.2

row,Variant,polymerase ribozyme fitness (log ratio)
1,A18G C20A C79U G117C,-3.24
2,A18C G113U,-4.82
3,A18G A68G U116G C123U,-5.7
4,A18C G39U C49U G120C,-4.35
5,G17C C98U C102A A111G A121G G122A,-6.68
6,A16G U55A C102A A121U,-0.698
7,A16U G63C G120U U125C,-0.937
8,A16U G23A G36U A46C G47C C73A C114U U129G U132A,-7.62
9,A18C U32C A37U A50U G60A A83U,-4.99
10,A18C U32C A37U A50U G60A G113A,-5.4
11,G17C A29U U125G,-5.1
12,A18C C72U U92G A121G,-0.934
13,A16U G45C C56G A83C,-4.35
14,A18G U81C C89U,-4.16
15,A18C A29G G61A,-2.27
16,A16U G52A C72U,-1.31
17,A16U G93U C123A U133C,-3.02
18,A18C C79G A90U G113A,-4.1
19,A16U C89A,-2.6
20,A16U G47U G52U G65U C115U G117C,-6.26
21,A16U C79U C86A G120U G128A,-4.89
22,A18U U116C G117A,-4.83
23,G17A A43G G127A,-4.18
